The text below walks through data of patent US9649360B2, “Pharmaceutical composition for the treatment and/or prevention of disease involving abnormal accumulation of amyloid β protein” (SHIGA UNIVERSITY OF MEDICAL SCIENCE, priority 2012, dated 2017).

Data set [1] concerns γ-secretase. Briefly: AICD production in transfected HEK293 cells treated with NEM (immunoblot). The class given is cell-based, human. As to conditions: NEM for 60 minutes, n=3. The protocol: (§1) Brain homogenates were lysed in a buffer (25 mM HEPES, pH 7.5, 150 mM NaCl, 2 mM EDTA, protease inhibitor cocktail and 10% glycerol) containing 1% Nonidet P40. Immunoblotting was performed as previously described (Nishimura, M., et al. Nat Med 5, 164-169 (1999)).
HEK293 cells transfected with control, ILEI siRNA, or ILEI cDNA (respectively denoted by ILEI-k/d and ILEI-oe in the figure) were treated with N-ethyl maleimide (NEM) for 60 minutes to block degradation of AICD. The AICD production was inhibited by a treatment with DAPT, which is a γ-secretase inhibitor (D in the figure). β-Actin was used as a loading control. The graphs show quantified AICD signal intensities (n=3).
Background: Immunoblotting shows a protein as a band on a membrane.

Data set [2] relates to endogenous Notch-1. Briefly: γ-secretase cleavage of endogenous Notch-1 in mouse embryonic fibroblasts (NICD immunoblot). The class given is cell-based. As to conditions: MEFs, EDTA 1.5 mM; DAPT 1 μM; n=3. The protocol: as §1
Next, γ-secretase cleavage of endogenous Notch-1 in mouse embryonic fibroblasts (MEFs) was examined (FIG. 1d). Treatment of MEF with EDTA (1.5 mM) induces cleavage of TMIC (transmembrane/intracellular Notch) and generates NEXT (Notch extracellular truncation). NEXT is further cleaved by γ-secretase to release NICD (Notch intracellular domain). The NICD production was inhibited by DAPT (1 μM). β-Actin was used as a loading control. The graphs show quantified NICD signal intensities (n=3).

Data set [3] relates to ILEI-Tg mice. Briefly: Immunoblotting of brain homogenates of ILEI-Tg mice (APP-CTF, NICD). The format is in vivo, mouse. Conditions: 6-week-old ILEI-Tg mice versus wild-type littermates.
The subject of data set [4] is ILEI-Tg mice. As to conditions: mouse, in vivo.
Data set [5] relates to ILEI-Tg mice. Briefly: Aβ40 and Aβ42 in brain homogenate fractions of ILEI-Tg mice (ELISA). The class given is in vivo, mouse. Conditions: Tris-buffered saline-soluble and insoluble fractions, 8 months old, n=5, versus wild-type littermates. (In general: In an ELISA, binding on a coated surface is turned into a signal by an enzyme label.)
Data set [6] deals with stable ILEI-knockdown HEK293 cells. Briefly: Aβ secretion after adding purified ILEI-His to culture solution of stable ILEI-knockdown HEK293 cells. The format is cell-based, human. The protocol: Using this cell culture solution, the measurement of secretory Aβ from the cells was performed according to ELISAs specific for human Aβ40 and Aβ42 (Wako Pure Chemical Industries).
Purified ILEI-His was added into the culture solution of stable ILEI-knockdown HEK293 cells at the indicated concentration (μg ml^−1).

Regarding `C[C@H](NC(=O)Cc1cc(F)cc(F)c1)C(=O)N[C@H](C(=O)OC(C)(C)C)c1ccccc1` [DAPT, reference compound], in data set [1], the AICD production entry is recorded as “inhibited”. Also, the “NICD production (Notch cleavage by γ-secretase)” value in data set [2] was “inhibited”.

B1: ILEI: interleukin-like epithelial-mesenchymal transition inducer, secretory protein, SEQ ID NO: 1 (mature: SEQ ID NO: 2) (protein, listed as Homo sapiens)
chain: MRVAGAAKLVVAVAVFLLTFYVISQVFEIKMDASLGNLFARSALDTAARSTKPPRYKCGISKACPEKHFAFKMASGAANVVGPKICLEDNVLMSGVKNNVGRGINVALANGKTGEVLDTKYFDMWGGDVAPFIEFLKAIQDGTIVLMGTYDDGATKLNDEARRLIADLGSTSITNLGFRDNWVFCGGKGIKTKSPFEQHIKNNKDTNKYEGWPEVVEMEGCIPQKQD
With B1, in data set [3], the “NICD levels in the brains” value is reported as “no alteration” and the “decrease in APP-CTF levels in the brains” value is 30%. Further, the “development, fertility and gross morphology” value in data set [4] is “normal development and fertility without any gross morphological defect”. Further, in data set [5], the “Aβ40 level in brain homogenates” value is “significantly reduced” and the “Aβ42 level in brain homogenates” value is “significantly reduced”. Moreover, the “NICD production (Notch cleavage by γ-secretase)” value in data set [2] was “does not perturb Notch cleavage”.

B2: ILEI-His: purified recombinant ILEI protein from the pcDNA6/V5-His construct, added from outside the cells (protein, UniProt Q92520 25-227, looked up)
Protein FAM3C: QVFEIKMDASLGNLFARSALDTAARSTKPPRYKCGISKACPEKHFAFKMASGAANVVGPKICLEDNVLMSGVKNNVGRGINVALANGKTGEVLDTKYFDMWGGDVAPFIEFLKAIQDGTIVLMGTYDDGATKLNDEARRLIADLGSTSITNLGFRDNWVFCGGKGIKTKSPFEQHIKNNKDTNKYEGWPEVVEMEGCIPQKQD
modifications: V5-His tag
notes: purified recombinant ILEI protein from the pcDNA6/V5-His construct, added from outside the cells
Regarding B2, the Aβ secretion result in data set [6] (at a concentration of 7 μg ml^−1) is given as “decreased to almost the same extent as in the case of introducing siRNA-resistant ILEI cDNA”; in data set [6] (purified protein added to the culture solution at the indicated concentrations (μg ml^−1)), “diminished Aβ secretion in a dose-dependent manner”.
